Experimental data published in US20180364250.

System: OTUB1

Chain of UBCH5C (chain, as listed by the source): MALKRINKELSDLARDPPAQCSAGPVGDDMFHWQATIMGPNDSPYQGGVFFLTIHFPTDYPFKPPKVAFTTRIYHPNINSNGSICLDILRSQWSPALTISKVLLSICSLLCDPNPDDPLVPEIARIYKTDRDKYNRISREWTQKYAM

**Q.** With UBCH5C as the substance, how does the “free ubiquitin released in a real-time deubiquitinase assay (3 µM OTUB1 with or without UbcH5c, 1 nM Atto532-tagged ubiquitin, 1 nM tIVR)” value read?
**A.** OTUB1 activity is upregulated by UbcH5c, and this was detected by the experiment
